Holding throughout (assay): holdup assay
Common to all, as to set-up: key: below the threshold = too weak to quantify, mostly under pKd 3.1 to 4
What all share (conditions): plain residues with an end cap or a label only (N-terminal biotin on a linker: ado-ado)

Experiment [1] concerns the target T1, RAPGEF6, Q8TEU7.
T1 sequence (Q8TEU7 525-625, limits assumed, looked up): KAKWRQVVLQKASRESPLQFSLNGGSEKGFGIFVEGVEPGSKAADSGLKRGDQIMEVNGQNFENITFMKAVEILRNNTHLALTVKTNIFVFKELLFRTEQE

The target of experiment [2] is T2, SYNJ2BP, P57105.
T2 sequence (P57105 8-110, limits assumed, looked up): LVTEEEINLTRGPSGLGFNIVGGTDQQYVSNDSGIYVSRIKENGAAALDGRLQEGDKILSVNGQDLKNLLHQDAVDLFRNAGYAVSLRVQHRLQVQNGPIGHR

For experiment [3], the target named is TJP1_3, Q07157.
TJP1_3, Q07157, sequence (Q07157 416-512): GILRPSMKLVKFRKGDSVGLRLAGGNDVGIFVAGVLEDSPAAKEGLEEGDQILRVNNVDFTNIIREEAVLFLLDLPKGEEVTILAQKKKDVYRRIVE
The target of experiment [4] is T3, LIN7C, Q9NUP9.
T3 sequence (Q9NUP9 88-185, limits assumed, looked up): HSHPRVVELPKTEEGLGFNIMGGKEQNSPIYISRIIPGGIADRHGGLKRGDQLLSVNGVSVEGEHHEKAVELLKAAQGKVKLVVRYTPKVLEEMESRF

Experiment [5] addresses GORASP2, Q9H8Y8.
In experiment [6] the target is MAGI2_5, Q86UL8.
MAGI2_5, Q86UL8, sequence (Q86UL8 915-1017): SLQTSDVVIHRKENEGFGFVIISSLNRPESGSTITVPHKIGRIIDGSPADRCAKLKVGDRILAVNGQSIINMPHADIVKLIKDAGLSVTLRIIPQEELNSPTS
Experiment [7] concerns the target T4, LIN7A, O14910.
T4 sequence (O14910 103-200, limits assumed, looked up): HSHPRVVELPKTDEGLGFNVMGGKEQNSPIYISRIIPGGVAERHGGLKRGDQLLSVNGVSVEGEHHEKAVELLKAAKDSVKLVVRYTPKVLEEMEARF

Experiment [8] addresses LNX1_3, Q8TBB1.
The target of experiment [9] is AHNAK1, Q09666.
AHNAK1, Q09666, sequence (Q09666 4-100): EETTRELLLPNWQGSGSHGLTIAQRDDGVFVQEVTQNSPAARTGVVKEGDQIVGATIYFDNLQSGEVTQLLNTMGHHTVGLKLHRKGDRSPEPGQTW
The target of experiment [10] is T5, DFNB31_3, Q9P202.
T5 sequence (Q9P202 811-907, limits assumed, looked up): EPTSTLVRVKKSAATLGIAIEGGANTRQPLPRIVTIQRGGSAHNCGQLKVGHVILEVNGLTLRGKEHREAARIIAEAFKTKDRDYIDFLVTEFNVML

Experiment [11] addresses FRMPD2_2, Q68DX3.
Experiment [12] concerns the target T6, GRIP1_7, Q9Y3R0.
T6 sequence (Q9Y3R0 999-1096, limits assumed, looked up): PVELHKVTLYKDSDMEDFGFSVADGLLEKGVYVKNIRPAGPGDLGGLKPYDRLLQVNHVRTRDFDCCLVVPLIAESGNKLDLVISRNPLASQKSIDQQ

In experiment [13] the target is FRMPD3, Q5JV73.
FRMPD3, Q5JV73, sequence (Q5JV73 12-100): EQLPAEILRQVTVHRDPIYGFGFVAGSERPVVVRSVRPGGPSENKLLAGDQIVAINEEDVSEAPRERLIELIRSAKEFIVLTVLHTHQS
Experiment [14] addresses T7, NHERF3_3, Q5T2W1.
T7 sequence (Q5T2W1 238-333, limits assumed, looked up): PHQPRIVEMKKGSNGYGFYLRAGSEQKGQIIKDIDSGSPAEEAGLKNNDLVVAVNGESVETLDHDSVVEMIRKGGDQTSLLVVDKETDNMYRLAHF

Experiment [15] deals with Inadl_5, Q8NI35.
Inadl_5, Q8NI35, sequence (Q8NI35 673-780): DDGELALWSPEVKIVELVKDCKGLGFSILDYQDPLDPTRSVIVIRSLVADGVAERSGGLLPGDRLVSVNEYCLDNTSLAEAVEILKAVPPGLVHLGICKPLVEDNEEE
Experiment [16] concerns the target PICK1, Q9NRD5.
For experiment [17], the target named is T8, PDZD2_2, O15018.
T8 sequence (O15018 329-429, limits assumed, looked up): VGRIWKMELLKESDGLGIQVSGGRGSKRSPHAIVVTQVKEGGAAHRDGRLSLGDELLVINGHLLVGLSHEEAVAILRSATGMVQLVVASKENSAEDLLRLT

The target of experiment [18] is GRID2IP_1, A4D2P6.
GRID2IP_1, A4D2P6, sequence (A4D2P6 1-87): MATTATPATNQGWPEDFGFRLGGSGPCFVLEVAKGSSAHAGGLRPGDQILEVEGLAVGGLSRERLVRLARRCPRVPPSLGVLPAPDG
Experiment [19] has as its target T9, SNTG1, Q9NSN8.
T9 sequence (Q9NSN8 52-150, limits assumed, looked up): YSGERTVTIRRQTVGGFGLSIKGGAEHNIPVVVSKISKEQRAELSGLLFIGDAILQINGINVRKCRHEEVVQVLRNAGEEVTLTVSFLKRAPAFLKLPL

For experiment [20], the target named is T10, MPDZ_5, O75970.
T10 sequence (O75970 695-796, limits assumed, looked up): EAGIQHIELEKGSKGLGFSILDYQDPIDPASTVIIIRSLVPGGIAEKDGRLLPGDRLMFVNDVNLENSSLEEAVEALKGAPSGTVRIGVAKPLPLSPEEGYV

For experiment [21], the target named is MAST2, Q6P0Q8.
MAST2, Q6P0Q8, sequence (Q6P0Q8 1099-1202): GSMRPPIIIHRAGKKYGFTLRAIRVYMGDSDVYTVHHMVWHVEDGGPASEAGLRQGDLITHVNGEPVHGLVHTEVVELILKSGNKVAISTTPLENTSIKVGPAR
For experiment [22], the target named is T11, GRIP1_4, Q9Y3R0.
T11 sequence (Q9Y3R0 467-571, limits assumed, looked up): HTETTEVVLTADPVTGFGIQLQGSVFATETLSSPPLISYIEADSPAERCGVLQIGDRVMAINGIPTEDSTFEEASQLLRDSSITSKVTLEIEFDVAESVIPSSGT

Experiment [23] concerns the target T12, PTPN13_1, Q12923.
T12 sequence (Q12923 1088-1188, limits assumed, looked up): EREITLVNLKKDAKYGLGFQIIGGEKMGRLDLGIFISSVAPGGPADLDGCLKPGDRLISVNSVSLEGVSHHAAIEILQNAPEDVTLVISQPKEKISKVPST

For experiment [24], the target named is T13, SNTB1, Q13884.
T13 sequence (Q13884 107-205, limits assumed, looked up): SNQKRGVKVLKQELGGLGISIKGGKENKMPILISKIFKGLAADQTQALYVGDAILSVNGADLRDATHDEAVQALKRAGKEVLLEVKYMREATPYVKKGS

FRMPD2_2, Q68DX3, sequence (Q68DX3 944-1038): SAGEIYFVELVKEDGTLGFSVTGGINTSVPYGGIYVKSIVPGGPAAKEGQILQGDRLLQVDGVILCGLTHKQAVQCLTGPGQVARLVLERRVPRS
PICK1, Q9NRD5, sequence (Q9NRD5 17-115): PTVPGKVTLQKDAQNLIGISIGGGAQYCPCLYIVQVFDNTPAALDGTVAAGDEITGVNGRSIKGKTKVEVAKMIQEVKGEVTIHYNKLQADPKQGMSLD
LNX1_3, Q8TBB1, sequence (Q8TBB1 500-596): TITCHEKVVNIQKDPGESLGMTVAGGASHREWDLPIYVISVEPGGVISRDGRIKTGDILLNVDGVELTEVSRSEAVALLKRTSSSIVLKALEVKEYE

Regarding QNRIITKTDV [SMCHD1, A6NHR9], the pKd result is “below the threshold” in [1]; 4.24 in [2]; “below the threshold” in experiment [3]; 3.94 in experiment [4]; “below the threshold” in [5]; “below the threshold” in [6]. In addition, the negative logarithm of the Kd (pKd) entry in [7], in experiment [8], in experiment [9], in experiment [10], in experiment [11] and in [12] was “below the threshold” throughout. Also, the pKd result in experiment [13] was “below the threshold”; in [14] it was “below the threshold”; in experiment [15] it was “below the threshold”; in [16], “below the threshold”; in [17] it was 4.4; in experiment [18], “below the threshold”. Further, the pKd in experiment [19] was 3.48; in experiment [20] it was “below the threshold”; in experiment [21] it was 5.05; in experiment [22] it was “below the threshold”; in experiment [23], “below the threshold”; in experiment [24] it was 3.64.

In the case of GDGLDDEIAV [NOS1AP, O75052], the pKd entry in experiment [1], in [2], in experiment [3], in experiment [4], in experiment [5] and in experiment [6] was “below the threshold” in each case. In addition, the pKd entry in [7], in experiment [8], in [9], in experiment [10], in experiment [11] and in experiment [12] was “below the threshold” throughout. The pKd in experiment [13] was 4.16; in [14], “below the threshold”; in experiment [15], “below the threshold”; in [16] it was 4.38; in experiment [17], 3.55; in experiment [18], “below the threshold”. In addition, the pKd result in experiment [19] was “below the threshold”; in experiment [20], “below the threshold”; in experiment [21], 4.04; in [22], “below the threshold”; in experiment [23], “below the threshold”; in experiment [24] it was “below the threshold”.

YPKQMPLSQV [FZD8, Q9H461]: the negative-log Kd (pKd) entry in experiment [1] is “below the threshold”; in experiment [2], “below the threshold”; in experiment [3], “below the threshold”; in experiment [4], “below the threshold”; in experiment [5], 3.56; in experiment [6], “below the threshold”. Besides, the pKd entry in experiment [7], in experiment [8], in experiment [9], in experiment [10], in [11] and in experiment [12] was “below the threshold” each time. The pKd result in experiment [13] was “below the threshold”; in experiment [14] it was “below the threshold”; in experiment [15], “below the threshold”; in experiment [16], “below the threshold”; in [17], 4.23; in experiment [18] it was “below the threshold”. The pKd is 4.04 in experiment [19]; “below the threshold” in experiment [20]; 4.29 in experiment [21]; “below the threshold” in experiment [22]; “below the threshold” in experiment [23]; “below the threshold” in experiment [24].

Usually pKd stands for the Kd on a negative log10 scale, so that one unit is a factor of ten.

These data come from publication PMC9482650, “Quantitative fragmentomics allow affinity mapping of interactomes” (Nature Communications, 2022).
